One molecule from patent publication US20070258988A1 (SLOAN KETTERING INSTITUTE FOR CANCER RESEARCH, published 2007) can be followed below.

What is called Ki is a dissociation constant, usually derived from enzyme kinetics or from competition with a known ligand. Higher therefore signals lower affinity.

The target of one assay is hMOR-1B4 (human, UniProt P35372 1-388). The assay is described as follows: cell-based or functional assay.
In the next assay the target is hMOR-1A (human). The assay is described as follows: cell-based or functional assay.
Another assay deals with hMOR-1 (human, UniProt P35372 1-400). The assay is described as follows: cell-based or functional assay.
In another assay the target is hMOR-1B5 (human, UniProt P35372 1-388). The assay is described as follows: cell-based or functional assay.
A further assay has as its target hMOR-1B3 (human, UniProt P35372 1-388). The assay is described as follows: cell-based or functional assay.
For the next assay, the target named is hMOR-1B2 (human, UniProt P35372 1-388). The assay is described as follows: cell-based or functional assay.
In a further assay the target is hMOR-1 (exons 1-3) (human, UniProt P35372 1-388). As to the kind of experiment: cell-based or functional assay.
Another assay addresses hMOR-1Y (human, UniProt P35372 1-388). The assay is described as follows: cell-based or functional assay.
The next assay concerns the target hMOR-1B1 (human, UniProt P35372 1-388). The assay is described as follows: cell-based or functional assay.
Assay [1] concerns the target T1, rMOR-1A (rat).
T1 chain: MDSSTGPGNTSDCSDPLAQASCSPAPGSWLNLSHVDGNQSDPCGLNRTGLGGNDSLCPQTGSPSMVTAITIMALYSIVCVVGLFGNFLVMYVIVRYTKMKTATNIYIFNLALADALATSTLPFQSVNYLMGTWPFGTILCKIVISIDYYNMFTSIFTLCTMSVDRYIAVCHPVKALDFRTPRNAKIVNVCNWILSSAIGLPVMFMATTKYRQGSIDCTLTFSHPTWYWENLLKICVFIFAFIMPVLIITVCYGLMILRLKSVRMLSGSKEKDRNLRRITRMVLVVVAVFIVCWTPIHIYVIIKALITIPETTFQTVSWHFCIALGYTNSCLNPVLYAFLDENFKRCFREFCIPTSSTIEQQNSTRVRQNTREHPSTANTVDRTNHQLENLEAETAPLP
As to the kind of experiment: cell-based or functional assay.

In the next assay the target is rMOR-1 (rat, UniProt P33535 1-398). The assay is described as follows: cell-based or functional assay.
In assay [2] the target is T2, rMOR-1 (no Exon 4) (rat, UniProt P33535 1-386, limits assumed). The assay is described as follows: cell-based or functional assay.
Assay [3] deals with rMOR-1C1 (rat). As to the kind of experiment: cell-based or functional assay.
Assay [4] concerns the target rMOR-1D (rat). The assay is described as follows: cell-based or functional assay.
Assay [5] has as its target T1, rMOR-1A. As to the kind of experiment: competition against [3H]DAMGO (~1 nM), membranes of stable CHO transfectants. The method, then: (§1) ANOVA was performed, followed by Tukey's post hoc analysis. Results are the mean ±S.E. of at least three independent determinations.
Assay [6] deals with T2, rMOR-1 (no Exon 4). Described as above. The method, then:
as §1

The target of assay [7] is T3, rMOR-1C1 (rat).
T3 construct: whole, on cells
The assay is described as above. The method, then: as §1

The target in assay [8] is T4, rMOR-1D (rat).
T4 construct: whole, on cells
The description is as above. As to the method:
as §1

B1: β-Endorphin (peptide, UniProt P01189 237-267, looked up)
peptide: YGGFMTSEKSQTPLVTLFKNAIIKNAYKKGE
notes: also called B-Endorphin
Turning to B1, the “Max Inhib (%)” value in the assay with hMOR-1B4 amounted to 69%; with hMOR-1A it was 73%; with hMOR-1, 79%; with hMOR-1B5 it was 69%; with hMOR-1B3, 73%; in the assay with hMOR-1B2, 65%. Moreover, the “Max Inhib (%)” value in the assay with hMOR-1 (exons 1-3) was determined as 73%; with hMOR-1Y, 90%; in the assay with hMOR-1B1 it was 65%. The “Max Stim (%)” value came to 177% with rMOR-1A [1]; 246% with rMOR-1; 240% with rMOR-1 (no Exon 4) [2]; 361% in the assay with rMOR-1C1 [3]; 165% with rMOR-1D [4]. The “EC50 (nM), stimulation of [35S]GTPγS binding” value came out at 4 nM with rMOR-1, 90 nM in the assay with rMOR-1 (no Exon 4) [2] and 91 nM with rMOR-1D [4]. Also, the inhibition constant Ki in the assay with rMOR-1A [5] stood at 10.5 nM; with rMOR-1 (no Exon 4) [6], 10 nM; in the assay with rMOR-1C1 [7], 8.8 nM; with rMOR-1D [8] it was 8.5 nM.
